# Measured values: patent US6500916B1, “Carrier polymers migrating into target organs and drug-containing polymers” (Ono Pharmaceutical Co., Ltd., priority 1998, dated 2002)
# Experiments:
# [1] = tested on: CCl4 induced liver damage; test: Effect on CCl4 induced liver damage (plasma GPT level); format: in vivo; conditions: mouse plasma, 18 hours fasting after CCl4 (10% v/v in sesame oil, 10 ml/kg i.p.); tail vein injection; Free PGE1 0.065 mg/kg, polymer 1 mg/kg
# Procedure: A solution of 10% (v/v) of CCl4 in sesame oil at dose of 10 ml/kg was administered into mouse abdominal cavity, and then drug (saline solution (Control), Free-PGE1 (Comparison), drug (PGE1)-containing polymer of the present invention PGE1-HZ-PLGA-HZ-Lac (reductive) (prepared in Example 6)) were injected into mouse through its tail vein at the setting dose. After the mouse had been fasted for 18 hours (25° C., water was freely given), blood was collected to assay GPT level (IU/L) in plasma.
# [2] = Biodistribution of [3H]PGE1-containing polymer (Polymer P2) after tail vein injection; format: in vivo, mouse; conditions: i.v., 3H label; for percentage of concentration in 1 ml of plasma: mean±S.D.; for percentage of urinary excretion: Urine
# Procedure: PLGA-HZ-Gal (prepared in Example 3) and PLGA-HZ-Lac (prepared in Example 5) were labeled with ^111In and were injected into mouse through its tail vein at dose of 1 mg/kg to analyze biodistribution of them. The results are shown in Tables 1 and 2 (Each value in Tables means the percentage of concentration in 1 ml of plasma, the percentage of amount of accumulation in each organ and the percentage of urinary excretion of the said PLGA derivatives (mean±S.D.), respectively at various times after administration.).
# Biodistribution of [^3H]PGE1-HZ-PLGA-HZ-Gal (prepared in Example 4, degree of polymerization=97) and [^3H]PGE1-ED-PLGA-ED-Gal (Comparison: the polymer described in International J. Pharmaceutics, 155, 65-74 (1997), degree of polymerization=101) was analyzed by the same procedure as described in Experiment 1. The results are shown in Tables 3 (Invention) and 4 (Comparison) (Each value in Tables means the percentage of concentration in 1 ml of plasma, the percentage of amount of accumulation in each organ and the percentage of urinary excretion of the said [^3H]PGE1 derivatives (mean±S.D.), respectively at various times after administration.).
molecule,measurement,setting,value
"CCCCCC(O)/C=C/C1C(O)CC(=O)C1CCCCCCC(=O)O (centres unmarked) [Free PGE1, PGE1, reference compound]",GPT level,[1],660.89 ± 218.28 IU/L
"PGE1-HZ-PLGA-HZ-Lac (Reductive/degree of Polymerization: d^3=0, x^3=35, y^3=36, z^3=22, w^3=4)",GPT level,[1],239.12 ± 77.482 IU/L
"[^3H]PGE1-HZ-PLGA-HZ-Gal (Degree of Polymerization: d^3=0, x^3=29, y^3=32, z^3=31, w^3=5) [[^3H]-PGE1-HZ-PLGA-HZ-Gal]",percentage of amount of accumulation in organ,"[2]; Kidney, 1 min.",1.26 ± 0.23%
same,percentage of amount of accumulation in organ,"[2]; Kidney, 5 min.",1.23 ± 0.06%
same,percentage of amount of accumulation in organ,"[2]; Kidney, 10 min.",0.79 ± 0.14%
same,percentage of amount of accumulation in organ,"[2]; Kidney, 60 min.",0.64 ± 0.22%
same,percentage of amount of accumulation in organ,"[2]; Liver, 1 min.",54.42 ± 0.79%
same,percentage of amount of accumulation in organ,"[2]; Liver, 5 min.",70.39 ± 3.51%
same,percentage of amount of accumulation in organ,"[2]; Liver, 10 min.",80.54 ± 9.52%
same,percentage of amount of accumulation in organ,"[2]; Liver, 60 min. (1 hour)",85.43 ± 3.78%
same,percentage of amount of accumulation in organ,"[2]; Lung, 1 min.",1.88 ± 0.46%
same,percentage of amount of accumulation in organ,"[2]; Lung, 5 min.",1.64 ± 0.56%
same,percentage of amount of accumulation in organ,"[2]; Lung, 10 min.",1.00 ± 0.21%
same,percentage of amount of accumulation in organ,"[2]; Lung, 60 min.",0.44 ± 0.18%
same,percentage of concentration in 1 ml of plasma,[2]; 1 min. after administration,14.33 ± 0.75%
same,percentage of concentration in 1 ml of plasma,[2]; 5 min. after administration,1.64 ± 0.51%
same,percentage of concentration in 1 ml of plasma,[2]; 10 min. after administration,0.40 ± 0.06%
same,percentage of concentration in 1 ml of plasma,[2]; 60 min. after administration,0.26 ± 0.07%
same,percentage of amount of accumulation in organ,"[2]; Spleen, 1 min.",1.11 ± 0.14%
same,percentage of amount of accumulation in organ,"[2]; Spleen, 5 min.",1.85 ± 0.10%
same,percentage of amount of accumulation in organ,"[2]; Spleen, 10 min.",1.24 ± 0.17%
same,percentage of amount of accumulation in organ,"[2]; Spleen, 60 min.",1.84 ± 0.16%
same,percentage of urinary excretion,[2]; 1 min.,0.00 ± 0.00%
same,percentage of urinary excretion,[2]; 5 min.,1.17 ± 1.01%
same,percentage of urinary excretion,[2]; 10 min.,1.79 ± 0.25%
same,percentage of urinary excretion,[2]; 60 min.,1.45 ± 0.83%
